Results published in patent publication US20060217290A1 (published 2006).

How the values were obtained:
human insulin receptor = target: T1, human insulin receptor (human, UniProt P06213 28-1382); experiment: competitive binding SPA, displacement of [125I] insulin from human IR membranes
T1 construct: whole, on cells; Assayed as membrane preparation (P1) of transfected 293EBNA cells, not as intact cells; also called IR; HIR

human IGF-1 receptor = target: T2, human IGF-1 receptor (human, UniProt P08069 31-1367); experiment: competitive binding SPA, displacement of [125I]IGF-1 from human IGF-1R membranes
T2 construct: whole, on cells; Assayed as membrane preparation (P1) of transfected 293EBNA cells, not as intact cells; also called IGF-R; insulin growth factor receptor

Relative IR Affinity (Mean) (human insulin receptor): 0.21 relative to recombinant human insulin | Relative IGF1-R Affinity (Mean) (human IGF-1 receptor): 1.1 relative to recombinant human insulin
B1: A0^ArgA21^GlyB29^ArgB31^ArgB32^Lys-human insulin (ligand)
chain 1: RGIVEQCCTSICSLYQLENYCG
chain 2: FVNQHLCGSHLVEALYLVCGERGFFYTPRTRK
notes: Insulin analog; Disulfides A7-B7, A20-B19, A6-A11; also called ArgA0, GlyA21, ArgB29, ArgB31, LysB32-human insulin
